Source: patent publication US20230406935A1 (F STAR THERAPEUTICS, published 2023)
Changes are numbered by the printed parent chain.

B1: Fcab FS17-33-116 (designed binder)
chain: TCPPCPAPELLGGPSVFLFPPKPKDTLMISRTPEVTCVVVDVSHEDPEVKFNWYVDGVEVHNAKTKPREEQYNSTYRVVSVLTVLHQDWLNGKEYKCKVSNKALPAPIEKTISKAKGQPREPQVYTLPPSRDESGYWVSLTCLVKGFYPSDIVVEWESNGEPQYWAKTTPPVLDSDGSFFLYSKLTVSNWRWQMDDFSCSVMHEALHNHYTQKSLSLSPGK
B2: FS17-33-449AA/HelD1.3 mock mAb^2 (bispecific antibody, human IgG1, kappa, L234A L235A)
heavy: QVQLQESGPGLVRPSQTLSLTCTVSGSTFSGYGVNWVRQPPGRGLEWIGMIWGDGNTDYNSALKSRVTMLVDTSKNQFSLRLSSVTAADTAVYYCARERDYRLDYWGQGSLVTVSSASTKGPSVFPLAPSSKSTSGGTAALGCLVKDYFPEPVTVSWNSGALTSGVHTFPAVLQSSGLYSLSSVVTVPSSSLGTQTYICNVNHKPSNTKVDKKVEPKSCDKTHTCPPCPAPEAAGGPSVFLFPPKPKDTLMISRTPEVTCVVVDVSHEDPEVKFNWYVDGVEVHNAKTKPREEQYNSTYRVVSVLTVLHQDWLNGKEYKCKVSNKALPAPIEKTISKAKGQPREPQVYTLPPSRDETGYWVSLTCLVKGFYPSDIAVEWESNGEPQYWAKTTPPVLDSDGSFFLYSKLTVSNWRWQLDDVFSCSVMHEALHNHYTQKSLSLSPGK
light: DIQMTQSPASLSASVGETVTITCRASGNIHNYLAWYQQKQGKSPQLLVYNAKTLADGVPSRFSGSGSGTQYSLKINSLQPEDFGSYYCQHFWSTPRTFGGGTKLEIKRTVAAPSVFIFPPSDEQLKSGTASVVCLLNNFYPREAKVQWKVDNALQSGNSQESVTEQDSKDSTYSLSSTLTLSKADYEKHKVYACEVTHQGLSSPVTKSFNRGEC
B3: FS17-33-451/HelD1.3 mock mAb^2 (without LALA) (bispecific antibody, human IgG1, kappa)
heavy: B2 heavy with A233L, A234L, T357E
light: B2 light
B4: FS17-33-449/HelD1.3 mock mAb^2 (without LALA) (bispecific antibody, human IgG1, kappa)
heavy: B2 heavy with A233L, A234L
light: B2 light
B5: FS17-33-451AA/HelD1.3 mock mAb^2 (bispecific antibody, human IgG1, kappa, L234A L235A)
heavy: B2 heavy with T357E
light: B2 light
notes: also called F17-33-451AA/HelD1.3; F17-33-451AA/HELD1.3
B6: FS17-33-451AA/MSL109 mock mAb^2 (bispecific antibody, human IgG1, kappa, L234A L235A)
heavy: EEQVLESGGGLVKPGGSLRLSCAASGFTFSPYSVFWVRQAPGKGLEWVSSINSDSTYKYYADSVKGRFTISRDNAENSIFLQMNSLRAEDTAVYYCARDRSYYAFSSGSLSDYYYGLDVWGQGTTVIVSSASTKGPSVFPLAPSSKSTSGGTAALGCLVKDYFPEPVTVSWNSGALTSGVHTFPAVLQSSGLYSLSSVVTVPSSSLGTQTYICNVNHKPSNTKVDKKVEPKSCDKTHTCPPCPAPEAAGGPSVFLFPPKPKDTLMISRTPEVTCVVVDVSHEDPEVKFNWYVDGVEVHNAKTKPREEQYNSTYRVVSVLTVLHQDWLNGKEYKCKVSNKALPAPIEKTISKAKGQPREPQVYTLPPSRDEEGYWVSLTCLVKGFYPSDIAVEWESNGEPQYWAKTTPPVLDSDGSFFLYSKLTVSNWRWQLDDVFSCSVMHEALHNHYTQKSLSLSPGK
light: DIVMTQSPLSLSVTPGEPASISCRSSQSLLHTNGYNYLDWYVQKPGQSPQLLIYLASNRASGVPDRFSGSGSGTDFTLKISRVETEDVGVYYCMQALQIPRTFGQGTKVEIKRTVAAPSVFIFPPSDEQLKSGTASVVCLLNNFYPREAKVQWKVDNALQSGNSQESVTEQDSKDSTYSLSSTLTLSKADYEKHKVYACEVTHQGLSSPVTKSFNRGEC
notes: also called FS17-33-451AA/MSL109 (parent 2)
B7: FS17-33-548AA/MSL109 (bispecific antibody, human IgG1, kappa, L234A L235A)
heavy: B6 heavy with D432G
light: B6 light
B8: FS17-33-539AA/MSL109 (bispecific antibody, human IgG1, kappa, L234A L235A)
heavy: B6 heavy with E371T, D432G, H445R
light: B6 light

Legend:
Assay in all cases: cell-based or functional assay
[1] = molecular target: T1, Human PD-L1 expressed on cells (human, UniProt Q9NZQ7 19-290)
[2] = molecular target: T1, Human PD-L1 expressed on cells; remark: listed apart in the source
[3] = molecular target: T1, Human PD-L1 expressed on cells; remark: listed apart in the source

T1 sequence (Q9NZQ7 19-290 limits assumed): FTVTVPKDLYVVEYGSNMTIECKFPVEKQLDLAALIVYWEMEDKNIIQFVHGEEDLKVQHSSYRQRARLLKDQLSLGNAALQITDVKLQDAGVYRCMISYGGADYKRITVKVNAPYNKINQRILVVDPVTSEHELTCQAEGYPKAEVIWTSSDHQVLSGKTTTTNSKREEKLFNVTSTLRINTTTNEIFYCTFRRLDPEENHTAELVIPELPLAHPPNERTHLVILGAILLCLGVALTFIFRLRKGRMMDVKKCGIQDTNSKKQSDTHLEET

Row | Binder | SEB assay (IFNγ release) EC50 [2] | SEB EC50 [3] | further results
1 | B1 |  |  | SEB assay EC50 [1]: 0.0753 nM
2 | B2 | 0.55 nM |  | 
3 | B3 | 0.852 nM |  | 
4 | B4 | 0.644 nM |  | 
5 | B5 | 1.12 nM |  | 
6 | B6 |  | 1.11 nM | 
7 | B7 |  | 3.21 nM | 
8 | B8 |  | 0.97 nM | 
